Assays:
[1] = target: diphtheria toxin receptor on human cell lines (U251, HeLa, Jurkat) (human) (UniProt Q99075); assay: cell-based or functional assay
[2] = target: diphtheria toxin receptor on Cos-7 cells (monkey kidney) (monkey) (UniProt Q09118); assay: cold competitor against I^125-labelled DT on Cos-7 cells; reference native DT
[3] = target: T1, DTR (diphtheria toxin receptor binding domain, codons 384-535 of DT), control protein (UniProt P00588 416-567); assay: competition with I^125-labelled DT on Cos-7 cells
T1 construct: range 384-535

Molecule | Apoptosis Prevention (%), HeLa cells, 0.2 uM STS, 2.17 uM Bcl-xL-DTR, 10 hrs [1] [%] | fold lower affinity than native DT [2] [fold] | binding result [3]
Bcl-xL-DTR | 32.4 | 3 | 
diphtheria toxin receptor on Cos-7 cells (monkey kidney) (receptor, whole, on cells; also called DT receptor) DLQEADLDLLRVTLSSKPQALATPSKEEHGKRKKKGKGLGKKRDPCLRKYKDFCIHGECKYVKELRAPSCICHPGYHGERCHGLSL |  |  | no binding

— US20040152179A1 (US Dept. of Health and Human Services, published 2004)
